Test results taken from PMC3949526, “The structure of an authentic spore photoproduct lesion in DNA suggests a basis for recognition”.

Tests used:
[1] = target: T1, N-terminal fragment of MMLV reverse transcriptase (fingers and palm domains) (Moloney murine leukemia virus, UniProt P03355 683-937); assay: X-ray crystallography (2.14 A); host-guest complex; SP lesions in central 10 bp, free of protein contacts; Crystallization: protein 2 mM in 50 mM MES pH 6.0, 0.3 M NaCl, 1 mM DTT; DNA 2.5 mM duplex in 10 mM HEPES pH 7.0, 10 mM MgCl2; crystallization buffer and temperature not given in the material; details: protein: recombinant; tags: 6xHis tag removed with thrombin; chain copies: 2; blunt; self-complementary, 2 copies of one strand
T1 sequence (P03355 683-937): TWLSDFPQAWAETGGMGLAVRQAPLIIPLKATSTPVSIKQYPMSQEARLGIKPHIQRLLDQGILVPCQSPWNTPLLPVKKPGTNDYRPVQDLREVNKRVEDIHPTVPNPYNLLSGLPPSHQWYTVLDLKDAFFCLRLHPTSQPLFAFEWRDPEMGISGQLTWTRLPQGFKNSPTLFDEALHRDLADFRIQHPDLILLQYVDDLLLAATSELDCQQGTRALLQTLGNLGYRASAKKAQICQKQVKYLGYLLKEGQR

[2] = target: T1, N-terminal fragment of MMLV reverse …; assay: X-ray crystallography (1.72 A); host-guest complex; undamaged DNA; Crystallization: protein 2 mM in 50 mM MES pH 6.0, 0.3 M NaCl, 1 mM DTT; DNA 2.5 mM duplex in 10 mM HEPES pH 7.0, 10 mM MgCl2; crystallization buffer and temperature not given in the material; details: protein: recombinant; tags: 6xHis tag removed with thrombin; chain copies: 2; blunt; self-complementary, 2 copies of one strand

Binder | binding result [1] | binding result [2]
SP DNA 16-mer (dsDNA, spore photoproduct (5-thyminyl-5,6-dihydrothymine) linking T6 and T7 in each strand) DNA 1: ATCCGTTATAACGGAT DNA 2: ATCCGTTATAACGGAT | binds | –
non-SP DNA 16-mer (dsDNA) DNA 1: ATCCGTTATAACGGAT DNA 2: ATCCGTTATAACGGAT | – | binds
